In publication PMC10766394:

Molecular target: anti-VEEV human IgG1 antibody F5 with the loss of function Fc mutations L234A and L235A (hF5-LALA) (human)
Experiment: ELISA

mouse complement component C1q from normal mouse serum (from UniProt P98086;P14106;Q02105) (complex)
fold reduction in binding against hF5-WT at 2.8 µg/ml: 5.1 fold
